Measured values as given in patent publication EP4725970A1 (Fortvita Biologics Inc., dated 2026).
Like-named read-outs stand apart in the source and are kept apart here.

Tests used:
[1] = biological target: T1, human GPRC5D (full-length, on cells) (human, UniProt Q9NZD1 1-345); experiment: flow cytometry, GS-CHO-hGPRC5D cells
T1 construct: whole, on cells; Overexpressed on GS-CHO cells; also the GPRC5D of H929 and L363 myeloma cells in the killing assays; also called hGPRC5D; GS-CHO-hGPRC5D

[2] = biological target: T1, human GPRC5D (full-length, on cells); experiment: flow cytometry, GS-CHO-hGPRC5D cells; remark: listed apart in the source
[3] = biological target: T1, human GPRC5D (full-length, on cells); experiment: cell-based or functional assay
[4] = biological target: T1, human GPRC5D (full-length, on cells); experiment: cell-based or functional assay; remark: listed apart in the source
[5] = biological target: T2, human CD3 (on Jurkat cells and human T cells) (human, UniProt P07766 23-207); experiment: flow cytometry, human CD4 T cells
T2 construct: whole, on cells; the other chains of the complex on the cells are not described; also called CD3E

[6] = biological target: T2, human CD3 (on Jurkat cells and human T …); experiment: flow cytometry, Jurkat cells
[7] = biological target: T2, human CD3 (on Jurkat cells and human T …); experiment: flow cytometry, human CD8 T cells
[8] = biological target: T3, human BCMA (full-length, on cells) (human, UniProt Q02223 1-184); experiment: flow cytometry, GS-CHO-hBCMA cells
T3 construct: Overexpressed on GS-CHO and 293T cells; also the BCMA of H929 and L363 myeloma cells in the killing assays; also called hBCMA; wild-type BCMA
T3 sequence: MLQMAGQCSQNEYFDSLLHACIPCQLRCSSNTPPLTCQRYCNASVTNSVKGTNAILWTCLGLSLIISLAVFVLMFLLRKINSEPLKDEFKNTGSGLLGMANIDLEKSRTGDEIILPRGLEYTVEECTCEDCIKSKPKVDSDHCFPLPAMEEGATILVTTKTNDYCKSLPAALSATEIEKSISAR

[9] = biological target: T4, cyno CD3E&G-His/Free (cynomolgus monkey, UniProt Q95LI5 22-117; Q95LI7 23-113); experiment: BLI (Octet), 1:1 fit
T4 construct: Bought recombinant heterodimer; also called monkey CD3 E&G
T4 sequence (looked up) 1: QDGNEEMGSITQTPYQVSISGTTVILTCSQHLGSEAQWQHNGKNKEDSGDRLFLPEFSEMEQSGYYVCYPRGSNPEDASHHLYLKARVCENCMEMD
T4 sequence (looked up) 2: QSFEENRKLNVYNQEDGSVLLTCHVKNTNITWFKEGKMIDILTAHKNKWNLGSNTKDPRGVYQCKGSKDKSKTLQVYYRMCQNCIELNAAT

[10] = biological target: T5, human CD3E&G-His/Free (human, UniProt P07766 23-126; P09693 23-116); experiment: BLI (Octet), 1:1 fit
T5 construct: Bought recombinant heterodimer; 'His/Free' as printed (one chain His-tagged); also called human CD3 E&G heterodimer

[11] = biological target: T6, cynomolgus monkey GPRC5D (full-length, on cells) (cynomolgus monkey, UniProt A0A2K5W6I7 1-300); experiment: flow cytometry, GS-CHO-cynoGPRC5D cells
T6 construct: also called cynoGPRC5D; GS-CHO-cynoGPRC5D

[12] = biological target: T7, cynomolgus monkey BCMA (full-length, on cells) (cynomolgus monkey, UniProt A0A2K5UD97 1-183); experiment: flow cytometry, GS-CHO-cynoBCMA cells
T7 construct: whole, on cells; also called cynoBCMA; GS-CHO-cynoBCMA

[13] = biological target: T3, human BCMA (full-length, on cells); experiment: cell-based or functional assay
[14] = biological target: T3, human BCMA (full-length, on cells); experiment: cell-based or functional assay; remark: listed apart in the source
[15] = biological target: T1, human GPRC5D (full-length, on cells); experiment: cell-based or functional assay; remark: listed apart in the source
[16] = biological target: T3, human BCMA (full-length, on cells); experiment: cell-based or functional assay; remark: listed apart in the source
[17] = biological target: T8, Cyno BCMA-His (cynomolgus monkey, UniProt A0A2K5UD97 1-53); experiment: BLI (Octet), 1:1 fit
T8 construct: also called Cyno BCMA (ACRO BCA-C52H7); monkey BCMA

[18] = biological target: T3, human BCMA (full-length, on cells); experiment: flow cytometry, GS-CHO-hBCMA cells; remark: listed apart in the source

T2 sequence (P07766 23-207): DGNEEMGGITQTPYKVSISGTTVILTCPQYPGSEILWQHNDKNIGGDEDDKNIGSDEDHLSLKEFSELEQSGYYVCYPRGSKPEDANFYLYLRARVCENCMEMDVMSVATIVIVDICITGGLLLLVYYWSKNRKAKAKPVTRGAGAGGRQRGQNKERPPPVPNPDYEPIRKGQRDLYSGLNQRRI
T8 sequence (A0A2K5UD97 entry or part of it): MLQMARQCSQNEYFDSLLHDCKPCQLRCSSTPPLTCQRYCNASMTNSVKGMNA
T5 sequence (P07766 23-126, chain 1 of 2): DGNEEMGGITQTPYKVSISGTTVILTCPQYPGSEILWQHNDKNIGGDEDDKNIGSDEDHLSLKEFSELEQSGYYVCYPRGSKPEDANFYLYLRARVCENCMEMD
T5 sequence (P09693 23-116, chain 2 of 2): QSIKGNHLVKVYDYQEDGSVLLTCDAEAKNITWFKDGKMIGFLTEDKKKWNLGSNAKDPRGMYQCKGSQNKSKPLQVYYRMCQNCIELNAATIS
T1 sequence (Q9NZD1 whole entry): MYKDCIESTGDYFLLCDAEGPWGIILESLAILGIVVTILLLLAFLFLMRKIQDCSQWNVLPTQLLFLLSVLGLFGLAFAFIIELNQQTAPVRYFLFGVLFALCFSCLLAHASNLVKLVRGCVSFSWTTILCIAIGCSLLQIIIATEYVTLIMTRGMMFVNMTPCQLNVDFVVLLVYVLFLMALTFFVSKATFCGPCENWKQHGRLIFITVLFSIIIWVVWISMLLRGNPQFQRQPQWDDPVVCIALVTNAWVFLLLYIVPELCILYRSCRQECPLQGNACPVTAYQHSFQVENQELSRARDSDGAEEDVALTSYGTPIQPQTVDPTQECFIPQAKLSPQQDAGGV
T6 sequence (A0A2K5W6I7 entry or part of it limits assumed, form in doubt): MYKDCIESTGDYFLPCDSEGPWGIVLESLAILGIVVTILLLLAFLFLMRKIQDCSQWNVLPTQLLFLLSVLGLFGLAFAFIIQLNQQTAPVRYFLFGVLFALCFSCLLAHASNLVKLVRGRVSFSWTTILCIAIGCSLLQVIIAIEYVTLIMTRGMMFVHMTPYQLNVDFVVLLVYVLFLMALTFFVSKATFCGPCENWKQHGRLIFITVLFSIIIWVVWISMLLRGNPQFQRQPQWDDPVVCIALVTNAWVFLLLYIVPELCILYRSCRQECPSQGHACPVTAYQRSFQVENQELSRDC
T7 sequence (A0A2K5UD97 entry or part of it): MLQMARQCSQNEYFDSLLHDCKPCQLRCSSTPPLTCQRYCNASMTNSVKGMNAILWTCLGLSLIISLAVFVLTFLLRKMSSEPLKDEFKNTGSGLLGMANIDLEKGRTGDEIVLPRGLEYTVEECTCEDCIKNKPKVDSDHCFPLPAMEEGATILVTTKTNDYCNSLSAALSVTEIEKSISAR

B1: Roche-GPRC5D/CD3 (bispecific antibody)
light 1: DIVLTQSPALAVSPGQRATISCRASQSVSISGINLMNWYQQKPGQQPKLLIYHASILASGIPTRFSGSGSGTDFTLTIDPVQADDIATYYCQQTRESPLTFGSGTNLEIKRTVAAPSVFIFPPSDRKLKSGTASVVCLLNNFYPREAKVQWKVDNALQSGNSQESVTEQDSKDSTYSLSSTLTLSKADYEKHKVYACEVTHQGLSSPVTKSFNRGEC
light 2: EVQLLESGGGLVQPGGSLRLSCAASGFTFSTYAMNWVRQAPGKGLEWVSRIRSKYNNYATYYADSVKGRFTISRDDSKNTLYLQMNSLRAEDTAVYYCVRHGNFGNSYVSWFAYWGQGTLVTVSSASVAAPSVFIFPPSDEQLKSGTASVVCLLNNFYPREAKVQWKVDNALQSGNSQESVTEQDSKDSTYSLSSTLTLSKADYEKHKVYACEVTHQGLSSPVTKSFNRGEC
heavy 1: ELQLEQSGGGLVQPGGSLTLSCAASGFTFSKYAMAWVRQAPTKGLEWVASISTGGVNTYYRDSVKARFTISRDNAKNTQYLQMDSLRSEDTATYYCATHTGDYFDYWGQGVMVTVSSASTKGPSVFPLAPSSKSTSGGTAALGCLVEDYFPEPVTVSWNSGALTSGVHTFPAVLQSSGLYSLSSVVTVPSSSLGTQTYICNVNHKPSNTKVDEKVEPKSCDKTHTCPPCPAPEAAGGPSVFLFPPKPKDTLMISRTPEVTCVVVDVSHEDPEVKFNWYVDGVEVHNAKTKPREEQYNSTYRVVSVLTVLHQDWLNGKEYKCKVSNKALGAPIEKTISKAKGQPREPQVCTLPPSRDELTKNQVSLSCAVKGFYPSDIAVEWESNGQPENNYKTTPPVLDSDGSFFLVSKLTVDKSRWQQGNVFSCSVMHEALHNHYTQKSLSLSPGK
heavy 2: not shown
notes: GPRC5D/CD3 bispecific derived from WO 2019/154890 A1
EC50 [1]: 9.78 nM | EC50 [2]: 16 nM | EC50 of PBMC killing of H929 ko BCMA cells, donor1 [3]: 0.00486 nM | EC50 of PBMC killing of H929 ko BCMA cells (LDH) [4]: 0.00419 nM | EC50 [5]: 66.6 nM | EC50 [6]: 30.4 nM | EC50 [7]: 65.8 nM

B2: F2 (24) (F2-SP34.24-SC38497) (trispecific antibody, human IgG1, kappa, lambda, L234A L235A)
heavy 1: not shown
light 1: DIVMTQSPDSLAVSLGERATINCRASESVDSYGITFMNWYQQKPGQPPKLLIYAASNQGSGVPDRFSGSGSGTDFTLTISSLQAEDVAVYYCQQSKEVPWTFGQGTKLEIKRTVAAPSVFIFPPSDEQLKSGTASVVCLLNNFYPREAKVQWKVDNALQSGNSQESVTEQDSKDSTYSLSSTLTLSKADYEKHKVYACEVTHQGLSSPVTKSFNRGEC
heavy 2: EVQLVESGGGLVQPGGSLKLSCAASGFTFNTYAMNWVRQASGKGLEWVGRIRSKYNNYATYYADSVKDRFTISRDDSKSTLYLQMNSLKTEDTAVYYCARHGNFGQSYVSWFAYWGQGTTVTVSSASTKGPSVFPLAPSSKSTSGGTAALGCLVKDYFPEPVTVSWNSGALTSGVHTFPAVLQSSGLYSLSSVVTVPSSSLGTQTYICNVNHKPSNTKVDKKVEPKSCDKTHTCPPCPAPEAAGGPSVFLFPPKPKDTLMISRTPEVTCVVVDVSHEDPEVKFNWYVDGVEVHNAKTKPREEQYNSTYRVVSVLTVLHQDWLNGKEYKCKVSNKALPAPIEKTISKAKGQPREPQVYTLPPSRDELTKNQVSLSCAVKGFYPSDIAVEWESNGQPENNYKTTPPVLDSDGSFFLVSKLTVDKSRWQQGNVFSCSVMHEALHNHYTQKSLSLSPGAGGGGSGGGGSDIQMTQSPSSLSASVGDRVTITCRASQSISRYLNWYQQKPGKAPKLLIYAASSLQSGVPSRFSGSGSGTDFTLTISSLQPEDFATYYCQQKYFDITFGCGTKVEIKGGGGSGGGGSGGGGSQLQLQESGPGLVKPSETLSLTCTVSGGSIVSSSYYWTWIRQPPGKCLEWIGSISIAGSTYYNPSLKSRVTISVDTSKNQFSLKLSSVTAADTAVYYCARDRGDQILDVWSQGTMVTVSS
light 2: QAVVTQEPSLTVSPGGTVTLTCRSSTGAVTTSNYANWVQQKPGQAPRGLIGGTNKRAPGVPARFSGSLLGDKAALTLLGAQPEDEAEYYCALWYSNLWVFGQGTKLTVLGQPKAAPSVTLFPPSSEELQANKATLVCLISDFYPGAVTVAWKADSSPVKAGVETTTPSKQSNNKYAASSYLSLTPEQWKSHRSYSCQVTHEGSTVEKTVAPTECS
EC50 [8]: 142 nM | EC50 [2]: 73.3 nM | EC50 of PBMC killing of H929 ko BCMA cells (LDH) [4]: 0.004 nM | EC50 [5]: 32.5 nM | EC50 [6]: 8.94 nM | Kd [9]: 12.5 nM | koff [9]: 0.00597 s⁻¹ | kon [9]: 476000 M⁻¹ s⁻¹ | Kd [10]: 17.2 nM | koff [10]: 0.00765 s⁻¹ | kon [10]: 445000 M⁻¹ s⁻¹ | EC50 [11]: 108 nM | EC50 [12]: 83 nM | EC50 of PBMC killing of H929 ko GPRC5D cells (LDH) [13]: 0.475 nM | EC50 [7]: 33.7 nM

B3: B3b (87) (497(GLS)_sp34.87_5E12_triFab) (trispecific antibody, human IgG1, kappa, lambda, L234A L235A)
heavy 1: not shown
light 1: not shown
heavy 2: not shown
light 2: DIVMTQSPDSLAVSLGERATINCRASESVDSYGITFMNWYQDKPGQPPKLLIYAASNQGSGVPDRFSGSGSGTDFTLTISSLQAEDVAVYYCQQSKEVPWTFGQGTKLEIKRTVAAPSVFIFPPSDECLKSGTASVVCLLNNFYPREAKVQWKVDNALQSGNSQESVTEQDSKDSTYSLSSTLTLSKADYEKHKVYACEVTHQGLSSPVTKSFNRGES
light 3: QAVVTQEPSLTVSPGGTVTLTCRSSTGAVTTSNYANWVQKKPGQAPRGLIGGTNKRAPGVPARFSGSLLGDKAALTLLGAQPEDEAEYYCALWYSNLWVFGQGTKLTVLGQPKAAPSVTLFPPSSEELQANKATLVCLISDFYPGAVTVAWKADSSPVKAGVETTTPSKQSNNKYAASSYLSLTPEQWKSHRSYSCQVTHEGSTVEKTVAPTECS
notes: also called Exemplary antibody No. 4
EC50 [1]: 95.9 nM | EC50 of PBMC killing of H929 ko GPRC5D cells, donor1 [14]: 0.14 nM | EC50 of PBMC killing of H929 ko BCMA cells, donor1 [3]: 0.879 nM

B4: B3 (87) (hz5E12_sp34.87_497_triFab) (trispecific antibody, human IgG1, kappa, lambda, L234A L235A)
heavy 1: not shown
light 1: DIVMTQSPDSLAVSLGERATINCRASESVDSYGITFMNWYQQKPGQPPKLLIYAASNQGSGVPDRFSGSGSGTDFTLTISSLQAEDVAVYYCQQSKEVPWTFGQGTKLEIKRTVAAPSVFIFPPSDEQLKSGTASVVCLLNNFYPREAKVQWKVDNALQSGNSQESVTEQDSKDSTYSLSSTLTLSKADYEKHKVYACEVTHQGLSSPVTKSFNRGEC
heavy 2: not shown
light 2: DIQMTQSPSSLSASVGDRVTITCRASQSISRYLNWYQDKPGKAPKLLIYAASSLQSGVPSRFSGSGSGTDFTLTISSLQPEDFATYYCQQKYFDITFGGGTKVEIKRTVAAPSVFIFPPSDECLKSGTASVVCLLNNFYPREAKVQWKVDNALQSGNSQESVTEQDSKDSTYSLSSTLTLSKADYEKHKVYACEVTHQGLSSPVTKSFNRGES
light 3: QAVVTQEPSLTVSPGGTVTLTCRSSTGAVTTSNYANWVQKKPGQAPRGLIGGTNKRAPGVPARFSGSLLGDKAALTLLGAQPEDEAEYYCALWYSNLWVFGQGTKLTVLGQPKAAPSVTLFPPSSEELQANKATLVCLISDFYPGAVTVAWKADSSPVKAGVETTTPSKQSNNKYAASSYLSLTPEQWKSHRSYSCQVTHEGSTVEKTVAPTECS
notes: also called Exemplary antibody No. 2
EC50 [1]: 132 nM | EC50 of PBMC killing of H929 ko BCMA cells (LDH) [15]: 0.025 nM | EC50 of PBMC killing of H929 ko GPRC5D cells, donor1 [14]: 0.346 nM | EC50 of PBMC killing of H929 ko BCMA cells, donor1 [3]: 0.0663 nM | EC50 of PBMC killing of H929 ko GPRC5D cells (LDH) [16]: 0.176 nM | Kd [9]: 61.1 nM | koff [9]: 0.0131 s⁻¹ | kon [9]: 214000 M⁻¹ s⁻¹ | Kd [17]: 1.58 nM | koff [17]: 0.00122 s⁻¹ | kon [17]: 773000 M⁻¹ s⁻¹ | Kd [10]: 69.4 nM | koff [10]: 0.0151 s⁻¹ | kon [10]: 218000 M⁻¹ s⁻¹ | EC50 [18]: 37.7 nM
